From article doi:10.1101/199034 (bioRxiv, 2017)

B1: human Kir6.2 (natural protein, UniProt Q14654 1-390, looked up)
chain: MLSRKGIIPEEYVLTRLAEDPAKPRYRARQRRARFVSKKGNCNVAHKNIREQGRFLQDVFTTLVDLKWPHTLLIFTMSFLCSWLLFAMAWWLIAFAHGDLAPSEGTAEPCVTSIHSFSSAFLFSIEVQVTIGFGGRMVTEECPLAILILIVQNIVGLMINAIMLGCIFMKTAQAHRRAETLIFSKHAVIALRHGRLCFMLRVGDLRKSMIISATIHMQVVRKTTSPEGEVVPLHQVDIPMENGVGGNSIFLVAPLIIYHVIDANSPLYDLAPSDLHHHQDLEIIVILEGVVETTGITTQARTSYLADEILWGQRFVPIVAEEDGRYSVDYSKFGNTVKVPTPLCTARQLDEDHSLLEALTLASARGPLRKRSVPMAKAKPKFSISPDSLS

Tests used:
[1] = target: human KATPem (human SUR1-human Kir6.2 fusion construct) (human); assay: cryo-EM structure
cryo-EM structure = target: the molecule itself; assay: cryo-EM structure

| Molecule | stoichiometry N [1] | stoichiometry N (cryo-EM structure) |
| --- | --- | --- |
| human KATPem (human SUR1-human Kir6.2 fusion construct) (complex) | 4 |  |
| B1 |  | 4 |
